Laboratory results from patent publication US20210008161A1 (CRISPR THERAPEUTICS, published 2021).

Target: p53-binding protein 1 (53BP1) (human, UniProt Q12888 1-1972)
Experiment: cell-based or functional assay

p53-binding protein 1 (53BP1), sequence (Q12888 whole entry): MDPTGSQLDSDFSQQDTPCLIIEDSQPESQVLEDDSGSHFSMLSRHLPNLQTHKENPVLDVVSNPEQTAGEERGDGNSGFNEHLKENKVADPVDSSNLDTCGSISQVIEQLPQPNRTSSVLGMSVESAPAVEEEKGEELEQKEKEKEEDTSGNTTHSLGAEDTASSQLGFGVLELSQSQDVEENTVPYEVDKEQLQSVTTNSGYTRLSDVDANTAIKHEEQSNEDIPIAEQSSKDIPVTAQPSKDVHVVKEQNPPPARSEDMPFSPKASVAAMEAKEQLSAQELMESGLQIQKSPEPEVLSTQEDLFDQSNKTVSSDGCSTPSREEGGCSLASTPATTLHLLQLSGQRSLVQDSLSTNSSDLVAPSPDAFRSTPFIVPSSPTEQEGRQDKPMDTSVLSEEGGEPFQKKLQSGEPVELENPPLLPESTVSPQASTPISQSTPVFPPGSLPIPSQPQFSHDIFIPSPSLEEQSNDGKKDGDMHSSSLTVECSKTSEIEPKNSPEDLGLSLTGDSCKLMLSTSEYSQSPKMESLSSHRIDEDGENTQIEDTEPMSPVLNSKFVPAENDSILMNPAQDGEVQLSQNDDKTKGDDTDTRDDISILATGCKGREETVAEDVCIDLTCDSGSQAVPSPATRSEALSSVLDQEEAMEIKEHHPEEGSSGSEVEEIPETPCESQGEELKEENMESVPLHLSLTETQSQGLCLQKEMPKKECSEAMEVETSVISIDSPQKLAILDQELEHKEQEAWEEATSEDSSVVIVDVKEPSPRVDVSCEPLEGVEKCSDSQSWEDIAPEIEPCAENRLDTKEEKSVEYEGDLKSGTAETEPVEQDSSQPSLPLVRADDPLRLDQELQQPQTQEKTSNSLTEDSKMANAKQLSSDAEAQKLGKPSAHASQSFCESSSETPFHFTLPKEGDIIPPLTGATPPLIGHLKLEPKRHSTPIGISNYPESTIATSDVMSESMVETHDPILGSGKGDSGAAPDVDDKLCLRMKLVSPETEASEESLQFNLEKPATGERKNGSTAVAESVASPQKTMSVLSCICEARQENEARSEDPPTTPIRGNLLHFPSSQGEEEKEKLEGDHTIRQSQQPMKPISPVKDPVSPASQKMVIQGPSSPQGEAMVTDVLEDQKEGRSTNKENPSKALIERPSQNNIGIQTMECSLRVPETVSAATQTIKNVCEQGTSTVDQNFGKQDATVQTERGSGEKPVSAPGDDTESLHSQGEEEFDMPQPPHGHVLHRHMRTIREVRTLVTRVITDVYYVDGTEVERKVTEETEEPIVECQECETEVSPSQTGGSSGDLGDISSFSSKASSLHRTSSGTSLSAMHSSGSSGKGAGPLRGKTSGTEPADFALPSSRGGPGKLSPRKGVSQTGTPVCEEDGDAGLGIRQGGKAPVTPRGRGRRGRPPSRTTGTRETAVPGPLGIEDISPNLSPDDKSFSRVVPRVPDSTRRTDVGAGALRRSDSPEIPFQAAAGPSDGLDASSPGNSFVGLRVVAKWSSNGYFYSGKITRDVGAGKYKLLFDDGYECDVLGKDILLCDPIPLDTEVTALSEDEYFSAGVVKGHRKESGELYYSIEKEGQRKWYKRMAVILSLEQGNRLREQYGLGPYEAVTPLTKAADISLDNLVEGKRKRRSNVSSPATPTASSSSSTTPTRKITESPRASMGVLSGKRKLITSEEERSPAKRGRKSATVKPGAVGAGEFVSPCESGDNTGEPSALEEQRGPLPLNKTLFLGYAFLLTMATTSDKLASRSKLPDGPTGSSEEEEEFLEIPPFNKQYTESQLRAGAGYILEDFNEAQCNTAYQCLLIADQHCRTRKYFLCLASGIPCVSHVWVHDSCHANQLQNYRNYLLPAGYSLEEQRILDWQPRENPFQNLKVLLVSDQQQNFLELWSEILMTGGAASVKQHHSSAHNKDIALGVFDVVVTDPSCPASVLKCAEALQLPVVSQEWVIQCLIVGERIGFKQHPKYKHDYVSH

B1: i53 polypeptide (polypeptide inhibitor of 53BP1) (designed binder)
chain: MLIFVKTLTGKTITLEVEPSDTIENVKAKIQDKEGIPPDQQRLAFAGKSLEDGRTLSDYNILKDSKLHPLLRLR
  HDR efficiency (GFP insertion at the HBB locus, CD34-expressing LT-HSPCs, GFP fluorescence): ~1.3 fold
  INDEL frequency at the HBB locus relative to RNP+AAV (CD34-expressing LT-HSPCs, TIDE analysis): 1.7 fold
  fold increase in HDR at the HBB locus over RNP+AAV alone (CD34-expressing LT-HSPCs, NGS assay): 1.4 fold
  fold increase in HDR efficiency over RNP+AAV alone (LT-HSPCs mobilised with Mozobil+GCSF): ~1.5 fold
